Data published in publication PMC12152508, “Altering 15‐Lipoxygenases to 18‐Lipoxygenases and Their Application to the Production of 5,18‐Dihydroxyeicosapentaenoic Acids” (Biotechnology and Bioengineering, 2025).
Numbering of substitutions follows the chain as printed. Names may count otherwise.

Legend:
[1] = substrate: CC/C=C\C/C=C\C/C=C\C/C=C\C/C=C\CCCC(=O)O; assay: purified protein; format: biochemical, Sorangium cellulosum; settings: 50 mM HEPES pH 8.0, 20°C
[2] = substrate: CC/C=C\C/C=C\C/C=C\C/C=C\C/C=C\CCCC(=O)O; assay: purified protein; format: biochemical, Archangium violaceum; settings: 50 mM HEPES pH 8.5, 20°C

B1: 15R-LOX from Sorangium cellulosum (Sorangium cellulosum) (protein)
chain: MSNPSLPQNDSPAEQQQRKSELARAQQTYVYDHDTRLSPLGVAQSVPNGQGFAPILVGSAALVILDLVGNVVAKASKLVGSDGSLRSPKGAPLDDATSARIQGVLHDLKQRHRELTLVLTPLHGEPERAPAPPPRAPAVALVEGVAQKFVTTAENRAMESVLGATNLSTKNVGDIIKSLLDTLLSAAGKLLLDLVGMYGQATSVYDYVSEFQTFRLPEIASVYQDDAIFAWMRVAGPNPLVLKRVASPGASFPVTDAQYRSVMGEGDSLASAGKEGRLYLADYKALSQLVPGTAPDQQKYVEAPLALFAVPAAGAPSRLLRPVAIQCAQAPGAASPIFTPSDGVAWEVAKLHVQVADGNFHELISHLGQTHLVLEAFAMATPRQLAPEHPVNVLLTPHFQGTLAINNAAEADLIAPGGPVDNLLAGTIASSTQLAVDAVLSYSVNQQFLPVALAQRGVDDPSTLPSYPYRDDATLLWGAIHTWVSRYLAVYYTSDADVLGDYELQHWIAELSSPSGCGLKDIGEDGAIRTVAYLADLLTHVIFTASAQHAAVNFPQSSLMSFTPALPLAAYAPAPSITAGLPPSEIFQHLPPLQQALLQINVMMLLGGVYYSRLGDYDRNIPGAYFTDARVREPLEAFQRELMEIEATIGKRNLQRFPYVVLLPSQIPQSINI
With B1 the Km ([1]; product 15R-HpEPE) was 41.9 µmol/L, the kcat ([1]; product 15R-HpEPE) was 68 s⁻¹ and the kcat/Km ([1]; product 15R-HpEPE) was 1.62e+06 M⁻¹ s⁻¹.

B2: 15R-LOX from Sorangium cellulosum (Sorangium cellulosum; L423W/L424M/L568M) (protein)
chain: B1 chain with L423W, L424M, L568M
notes: expressed from pET-28a(+) in E. coli C2566, His-Trap purified
B2 was tested, and the Km ([1]; products 15R- and 18R-HpEPEs) was 253.7 µmol/L, the kcat ([1]; products 15R- and 18R-HpEPEs) was 90.8 s⁻¹ and the kcat/Km ([1]; products 15R- and 18R-HpEPEs) was 360000 M⁻¹ s⁻¹.

B3: 15R-LOX from Sorangium cellulosum (Sorangium cellulosum; L423W) (protein)
chain: B1 chain with L423W
notes: as for B2
Protein B3 has a Km ([1]; products 15R- and 18R-HpEPEs) of 69.8 µmol/L, a kcat ([1]; products 15R- and 18R-HpEPEs) of 105 s⁻¹ and a kcat/Km ([1]; products 15R- and 18R-HpEPEs) of 1.5e+06 M⁻¹ s⁻¹.

B4: 15R-LOX from Sorangium cellulosum (Sorangium cellulosum; L423W/L424M) (protein)
chain: B1 chain with L423W, L424M
notes: as for B2
B4 gave a Km ([1]; products 15R- and 18R-HpEPEs) of 43.3 µmol/L, a kcat ([1]; products 15R- and 18R-HpEPEs) of 22.7 s⁻¹ and a kcat/Km ([1]; products 15R- and 18R-HpEPEs) of 520000 M⁻¹ s⁻¹.

B5: 15S-LOX from Archangium violaceum (Archangium violaceum Cb vi76; L429W/L430M/L575M) (protein)
chain: MRSIPSLPQNDSPAQQELRLATLTQERQVYAYNFDSRLSPLGIAAQVPRQDNFSFVWLDGVATTGLQLLGNVLAIGAKLFDNGEAIQNDAGLSELELRRVEGTYRELTDGFSRLSDRTSRLHQAPRSPAVTLIADVIERPRTLLKAAGQKLEETAGVAIVSELATQAALDAPAIGQDILDLIDTLLKKLLSEAGDLFLKYLGLYGKAASLDNYTAQFSLLQPPSVASNYETDLIFARMRLAGPNPALLQGIAALPEKFPVTDAQYQSVMGSQDTLARAGQEGRLYLLDYAVFQGIPTGQTSGGQKYIEAPLALFAVPAANQADRKLRAVAIQCSQTPGRSNPIFTPADGTSWSLARLHVQVADGNYHELIAHLGLTHLILEEFTLSTHRQLAPQHPLYLLLTPHFQGTLAINNAAETSLIAPGGPVDQWMAGEIKASTQVSIQAVANQSINQSFLPRALAARGVDDASKLPDYPYRDDALLLWNDIRAWVSDYLAIYYNDDAAVRSDYELQAWVTELASPDAGKLKDVTEGGGGIQTFEYLVDLTTYIIFTASVQHAAVNFPQRTVMSYTPALPMAAYAPAPTSVEELPPSTELTHLPPLQMAFLQQAVTFGLGNVYFTRLGGYDTYLREPWFADARVWPALEVFQKRLRATEREIGQRNLSRIPYETLLPTAIPQSINI
notes: as for B2
B5 showed a Km ([2]; products 15S- and 18S-HpEPEs) of 221.3 µmol/L, a kcat ([2]; products 15S- and 18S-HpEPEs) of 118 s⁻¹ and a kcat/Km ([2]; products 15S- and 18S-HpEPEs) of 530000 M⁻¹ s⁻¹.

B6: 15S-LOX from Archangium violaceum (Archangium violaceum Cb vi76; L429W) (protein)
chain: B5 chain with M430L, M575L
notes: as for B2
Work on B6 yielded a Km ([2]; products 15S- and 18S-HpEPEs) of 35.6 µmol/L, a kcat ([2]; products 15S- and 18S-HpEPEs) of 51.8 s⁻¹ and a kcat/Km ([2]; products 15S- and 18S-HpEPEs) of 1.45e+06 M⁻¹ s⁻¹.

B7: 15S-LOX from Archangium violaceum (Archangium violaceum Cb vi76; L429W/L430M) (protein)
chain: B5 chain with M575L
notes: as for B2
In the case of B7, the Km ([2]; products 15S- and 18S-HpEPEs) is reported as 57.2 µmol/L, the kcat ([2]; products 15S- and 18S-HpEPEs) is reported as 48.7 s⁻¹ and the kcat/Km ([2]; products 15S- and 18S-HpEPEs) is reported as 850000 M⁻¹ s⁻¹.

B8: 15S-LOX from Archangium violaceum (Archangium violaceum Cb vi76) (protein)
chain: B5 chain with W429L, M430L, M575L
notes: as for B2
B8 showed a Km ([2]; product 15S-HpEPE) of 40.7 µmol/L, a kcat ([2]; product 15S-HpEPE) of 61.4 s⁻¹ and a kcat/Km ([2]; product 15S-HpEPE) of 1.51e+06 M⁻¹ s⁻¹.
